In the DeepSol protein solubility set:

test: soluble on expression in E. coli; label from the status in PepcDB or PDB records

Question: For “MKVKTQFVCNQCAAIFKQWAGQCTQCGAWNSIVEEGIMPENKTLRSGQWANQRSVITAVEDVVMDKIVRMDCGISELNRVLGGGLVYGSVVLIGGDPGIGKSTLLLQTLANLSMQETVLYVTGEESLQQVAMRAQRLGLPLAGLRLLAETQVESIIAQAQKEKPRIIVVDSVQTIFTEAISSAPGGVSQVRESAAQLVRYAKMTNTAIFLVGHVTKEGTLAGPRVLEHMVDSVLYFEGQNDSRFRVIRAIKNRFGAVNELGVFAMTDKGLKEVANPSAIFLSRQPEPTPGSAVMVTWEGSRPMLVEVQALVDEAHGQQAKRVTAGLEHNRLAILLAVLHRHGGIATYDQDVFINVVGGVKVTETASDLALLAAVISSLRNRIFDSETIIFGEVGLAGEIRPVQSGQERIKEAIKHGFKRAIVPFANAPKQQIDSMTVEPVKHLRDVLEKM”, which “soluble on expression in E. coli” value is on record?
Answer: The value was “not soluble”.

Question: Which “soluble on expression in E. coli” value does the source give for “MESCITVIGERDVVLGFRLLGIQHTIIAEGKDLLKKFLEVFQNPQCNIIIVSENVKNMMDKRTLRSVEISSKPLVVFIPLPGVREEETIEEMAKRILGIDIGNVLEHHHHHH” here?
Answer: The value was “not soluble”.

Question: With “MKALCLLLLPVLGLLVSSKTLCSMEEAINERIQEVAGSLIFRAISSIGLECQSVTSRGDLATCPRGFAVTGCTCGSACGSWDVRAETTCHCQCAGMDWTGARCCRVQPLEHHHHHH” as the sequence, how does the “soluble on expression in E. coli” value read?
Answer: Its value is “not soluble”.

Question: Which “soluble on expression in E. coli” value does the source give for “MKGRVVIADDEPITRMDIVEMLLEEGYDIVGEASDGFDAIELCKKHKPDLVLMDVKMPLLNGLKAAEVINQDELAACVVLVTAYSGREFVEEAKKAGAMGYVVKPINEKNLLPTLEVAVSKSKEFNEMKSQVKKAQVQLEDRKQIERAKGILMKKEMLSEEEAYNQIRKLSMSKRCSMGEIAKIITMNQ” here?
Answer: The value was “not soluble”.

Question: Which “soluble on expression in E. coli” value does the source give for “MNHVKKHVLWKDEYFERYYRLNPELVQKRLDKIYQAEDDLMVLISTQLFCFLQANGTLYFDGCYKTGKADNSLLCTNLALWSIELACDHFDIREERGHTTKFSEQGESWLTLFACNQFSLVPYCYPAIQRGFQSGVLKEIVPFYREQKLGILAMEIMARERGDTINWEAMQVRVDPVYLDFCQNILLSSDDELVRTGLITLCDKHLEWTDFHNSDKHCCLTGYEIQRQDLLLWPFEYQAVKNWRARQGLSTPMIEHPLMNSPMTTANCPDFSQWQRPEWFNPLVDFLAQRRPELAFLRHLFI” here?
Answer: The value was “not soluble”.

Question: With “FAVSSELSACGRARTYRVEGQLFYGSVEDFMAAFDFREPLERVTIDVSRAHIWDISSVQALDMAVLKFRREGAEVRIVGMNEASETLVDRLALHDRPGALDRLTAH” as the sequence, how does the “soluble on expression in E. coli” value read?
Answer: The value was “not soluble”.

Question: For “MKGKNNMSRIIVVTSGKGGVGKTTSSAAIASGLALRGKKTAVIDFDIGLRNLDLIMGCERRVVYDFVNVINGEATLNQALIKDKRNENLFILPASQTRDKDALTKDGVQRVLNDLKEMGFDFIICDSPAGIEQGALMALYYADEAIVTTNPEVSSVRDSDRILGILDSKSMRAEQGQAPIKQHLLLTRYNPARVTQGEMLSVQDVEEILHVPLLGVIPESQAVLNASNKGVPVIFDDQSDAGQAYQDTVARLLGEQVEFRFLTEAKKGIFKRLFGG”, which “soluble on expression in E. coli” value is on record?
Answer: Its value is “not soluble”.

Question: For “MSLKDGKLGLPIPEAVKIIPELNNYVINGKLDFSNRQARILYNKAIAKALFGLDIEYHPKGLVTTPISRYIFLKTFLRGGEVALEIGTGHTAMMALMAEKFFNCKVTATEVDEEFFEYARRNIERNNSNVRLVKSNGGIIKGVVEGTFDVIFSAPPYYDKPLGRVLTEREAIGGGKYGEEFSVKLLEEAFDHLNPGGKVALYLPDKEKLLNVIKERGIKLGYSVKDIKFKVGTRWRHSLIFFKGISEGHHHHHH”, which “soluble on expression in E. coli” value is on record?
Answer: The value was “soluble”.

Question: For “MGSDKIHHHHHHKYTLRFGHVLAPGEPYHQAFLKWAKAVEEKTNGDVRIEVFPSSQLGVEEDIIEQIRMGAPVGWNTDSARLGMYVKDIGVMNLAYFIDFMGAKTPEEAIEVLKKIKQSPTMQKWLKELEQRFGIKVLSFYWVQGYRHFVTNKPIRKPEDLNGLRIRTPGAPAWQESIRSLGAIPVAVNFGEIYTAVQTRAVDGAELTYANVYNGGLYEVLKYMSETGHFLLINFEIVSADWFNSLPKEYQKIIEEEMDKAGIEVSLKIMKELEEEYKQKCIEKGMAVIPASEIDKEAFMEKAKQAYKNLGLENALNQLIKEVKGE”, which “soluble on expression in E. coli” value is on record?
Answer: The value was “not soluble”.

Question: Which “soluble on expression in E. coli” value does the source give for “MSLSGEPYNFEYTFSKSHDIGVSLTIGKRNYMEDEVLIAGNIKEGIDLVGIFDGHNGSDAAKLAAKLFKEEIKHLEEEFDWITLFEKVHSTIIKSTESGTTATLALIYSNKITLVHCGDSTAFALKKRKLKKLTHDQNTSSLEEVSSIKKNGGVVEFNGGILRVNGQISVTRSLGDKKFHPPLTCIPEVIELESDDITSLVLTSDGISSVLQLDEIEAVMNSEMNVEEKSSTLRNQSFIREGKDNMSVIVVSFNEGHHHHHH” here?
Answer: Its value is “soluble”.

Question: With “MKKVEVLKRLENAGVIAVLRADSKEEALKISHAVVEGGMIGLELTFTVPQADEVIRSLVETYHDEKDIVIGAGTVLDAVTARLAIMAGAEFIVSPSFNRETAEICNLYQVPYLPGCMTITEMQTALKSGVDIVKLFPGSTYGPSIISAFQAPLPYLNIMPTGGVSLDNMASWFEAGVTAVGVGGNLLAHAKTGEFGKVTALAKQYMAKFREIKEN” as the sequence, how does the “soluble on expression in E. coli” value read?
Answer: Its value is “not soluble”.

Question: With “MGHHHHHHSHMNKDLLRRVLVLMNSKHTFLALCALRFMRRIIGLKDEFYNRYITKGNLFEPVINALLDNGTRYNLLNSAVIELFEFIRVEDIKSLTAHIVENFYKALESIEYVQTFKGLKTKYEQEKDRQNQKLNSVPSILRSNRFRRDAKALEEDEEMWFNEDEEEEGKAVVAPVEKPKPEDDFPDNYEKFMETKKAKESEDKENLPKRTSPGGFKFTFSHSASAANGTNSKSVVAQIPPATSNGSSSKTTNLPTSVTATKGSLVGLVDYPDDEEEDEEEESSPRKRPRLGS” as the sequence, how does the “soluble on expression in E. coli” value read?
Answer: Its value is “not soluble”.

Question: Which “soluble on expression in E. coli” value does the source give for “MGSDKIHHHHHHMKMIIGRKIGMTRVFVGNDSVPVTVIKAGPCVVVQKKTVEKDGYNAVQLGFEKAKKVNKPLAGHFKKFGVEPMKILREFRVENPDEYEPGQVIKVDVFEKGEYVDVTGWTKGRGFAGAMKRWGFSGGPKSHGSKFHRELGSVGQHTEPAKIWKGKKMPGRYGNERVTVRNLQVVDIDPENDLLVVKGGVPGARGGLVLIRSAKAPKK” here?
Answer: Its value is “not soluble”.

Question: With “SRLMNEIRETRGLAYSVYSTFAPYQEKGPFEIGLQTKKEQAEQALQLTQKTLRDFVEQGPTEEELQAARQNIVGGFPLRIDSNQKILGYLGVIGFYDLPLTYLEDYVKAVEKVTVAQIRDAFKRRIDPAGMVTVVVGA” as the sequence, how does the “soluble on expression in E. coli” value read?
Answer: Its value is “not soluble”.

Question: Which “soluble on expression in E. coli” value does the source give for “MGSDKIHHHHHHMRKRRVYWTLFITAFAWLASCSDDDINGSSGFNPNQPIEITEFYPDSGGIATPMIIEGRNFGTDTTGMKVYFEDVDGIRHPAGLVSSNGSRIYAFVPKGLTFKREMNILVERRTPDGQEYIGKAPDQFLYKTQTSVSTVAGLASPDNNINTVGGDLATCTFSSPFYLCIDGEDNIFVVDRKGDSGKDKQPNTTCRNEKGEGVNGNISMISIASNSSIVLKYGTAYINAPAYSDEKDAEAVYIPDDAGMKYYDMQKLLNYVPRYRTVLKSEELSTVDENNWKHCFVINKLDHMIYTVMWKGQLVRINPKNRTAEILLKKISNVATGDGGKAGSDSYIAFSPIKGEENVLYVSLADFHQIWRVDVSKITPEDKDTYNGESYAGKAIYEGVMNGKGWEDGLLKNAKFRHPRQICFTDDGKMYIADSGNSCIRVIDTTMPKERAAVTTPIGLPGAEGYKDGGPEIAKFHFPCGVAVNSDGTIVYVADTQNKVIRKLSIE” here?
Answer: Its value is “not soluble”.

Question: For “MAHHHHHHMFPQGLIDQWLSKSREGRRSVREDRKATPAILDNIARLEEYCRSHPYDVFCASTLQHPPFALHALESEAAEQQRLAQPPPVFAATVPSPSAHTTASNEVRGGVCGRYADGDESRASVTAARQHLHNVAARLAAYLQSSGAVRSSASRHEEESQCTVVADFFVHLLSEAAVAAVYRQGIAAQVEAEERAAFQHRQSQRRLQLRVDSKHDGTLQRLELSDSKGADTEAVHEVEGLTVVRPIADYRRLSQGLASLWSLLAQTQRRGGLAVGGPSKERSRDSTADTDSVNDNDNLWTRVRVDCLRHWLGDRALPPPPPLPGTAALGETQRKTEASSPAMPGGAWWSRPLYISERDVEFALRKVLADVTASAAS”, which “soluble on expression in E. coli” value is on record?
Answer: Its value is “soluble”.

Question: With “LQMLTLEEWAAEKYRSNPPSVSTLRRYAKQNLFCPPAMKQGRLWRVREDAELVGELVTPVIKKNDSLLLQRILSNGSQTA” as the sequence, how does the “soluble on expression in E. coli” value read?
Answer: Its value is “not soluble”.

Question: Which “soluble on expression in E. coli” value does the source give for “MSINGISGASPLVALQGPSASQRPEPVSSTDRAQAPAFSERLGSALEGLAKSQTEAAEKASAFERGEGGNLAEVMVSQQVSSLGFQLALNVRNKALGAYRDIMNMPV” here?
Answer: The value was “not soluble”.

Question: With “SAGINYVQNYNGNLGDFTYDESAGTFSMYWEDGVSSDFVVGLGWTTGSSNAITYSAEYSASGSASYLAVYGWVNYPQAEYYIVEDYGDYNPCSSATSLGTVYSDGSTYQVCTDTRTNEPSITGTSTFTQYFSVRESTRTSGTVTVANHFNFWAHHGFGNSDFNYQVVAVEAWSGAGSASVTISS” as the sequence, how does the “soluble on expression in E. coli” value read?
Answer: The value was “soluble”.

Question: With “MGSDKIHHHHHHMRILLIHQNFPGQFKHLAPALVANGHEVRTLTLRQDLPDQWQGVTVHRYRAQRNSSPTVHPWVGDFETKVIRGEACFRAALQLRNQGYQPDLILAHPGWGETLFLQDVWPAAKLAIYCEFYYRSAGSDVDFDPEFQRPQGEEDTACRLQLKNLIYTMQGDRVTAGIAPTHWQADQFPEPLRSKITVVHDGIDTEAIAPNPSATITLNNQLKLGRNDEVITFVNRNLEPYRGYHIFMRSLPEILQQRPKARVILVGGDDVSYGARPPAGTWKQIFLKEVADRLDLSRVHFVGKIPYNAFLSLLQVSSVHVYLTYPFVLSWSLIEAMSCGCAIVASDTAPVREVISDGETGRLVNFFDPAGLAATVSELLASPSARAKLGKKARLFAQNHYDLQRVCLPQQMQWVRSLA” as the sequence, how does the “soluble on expression in E. coli” value read?
Answer: Its value is “not soluble”.

Question: For “MSKSICKSSMRAAVVRRFGAPDVIEAVESDMPRLEKNQVLVRNYAAGVNPVDTYIRAGQYGKLPNLPYVPGKDGAGFVELVGESVKNVKVGDRVWYGSEADSTAEYVAVNRPFELPEGVSFEEGASLGVPYLTAYRALFHLAGAKTGDVILVHGASGGVGSALMQLAAWRNIEAVGTAGSADGIRFVKSLGARNVYNHSDKQYVSKMKNDYPGGFNHIFEMAAHTNLNTDLGLLAPRGRVAVIGNRAETTINARQLMVTEGAVYGVALGMSSEAELLDFGINIVSFLKETEFRPLINKLYRLEQLGLAHEEIMNNKGAKGNLVVQIEH”, which “soluble on expression in E. coli” value is on record?
Answer: Its value is “not soluble”.

Question: For “MPQVETTSVFRADLLKEMESSTGTAPASTGAENLPAGSALLVVKRGPNAGARFLLDQPTTTAGRHPESDIFLDDVTVSRRHAEFRINEGEFEVVDVGSLNGTYVNREPRNAQVMQTGDEIQIGKFRLVFLAGPAELEHHHHHH”, which “soluble on expression in E. coli” value is on record?
Answer: The value was “soluble”.

Question: With “MGSDKIHHHHHHMRTLKVLHLASFDGNIGDNANHNGVRFLWKKYLPEYDFAITPLEMREYFWKWKSFDDGFADMVNEYDLFVCGGGNYFELWVQSSPTGTSVAIPLEVLRKIKTPCLFYALGLDPYMGAPDICIERFKRFLDYTLASPQFLVSVRNDGSLDSARRVLGGEYADRIHLMPDGGHFVQPEACTHYELTPGARTIGVNLAGDMLDFRFKSCNGKNLNDFKRSTAAVLCDIMRRMPDVNLIFYPHIHKDYSFLADFICGIDDHLLRRRITVAPYLHGQGAERKFFDLYRQCALNIGTRLHANICSVGLKTPSIGIVTHEQIHELYGYYGMAERALRFSDDNYAAKLDDLISDSLENTERISCRYSDVMSMVTKDAERFLGIMNCWLDSVV” as the sequence, how does the “soluble on expression in E. coli” value read?
Answer: The value was “not soluble”.

Question: For “MINHECINQPYGRILKFSRVQAKEMLTADELKENFAKNGQTLAQWARENGFKPRDVYLVIGGQRKGNYGKGHEIAKKLGLK”, which “soluble on expression in E. coli” value is on record?
Answer: The value was “not soluble”.

Question: Which “soluble on expression in E. coli” value does the source give for “MDFLERLKSLWPDNAKPADFYNKIDMSASGFSRVWKDGAIPTADYLIKIQEVTGCDLNWLLTGQGSPYMNKGQAVEVRTHTDGTATDTLGNP” here?
Answer: Its value is “not soluble”.
